B1: SEQ ID NO: 33(18) (mixed)
RNA: AUGAUCGGACAUAACUAAUUAGGGGUGUCAA
modifications: PEG-A(M)U(M)G(M)A(M)U(F)C(F)G(M)G(M)A(M)C(M)A(M)U(M)AAC(M)U(F)A(M)A(M)U(M)TA(M)G(M)GG(M)G(M)TG(M)U(M)C(M)A(M)A(M)-idT (F=2'-F, M=2'-OMe, PEG=40 kDa branched PEG)
B2: SEQ ID NO: 9 (ssRNA)
RNA: GGGAACGAAGCGACAGACGUUCCAGCGUCUAAUACGUGAAUAACCUGAUCGUAGGGGGUUCAAGUACUGAGGACAGA
modifications: 2'-F pyrimidines (U, C); purines 2'-OH

Legend:
[1] = biological target: T1, chymase (native, human skin mast cell) (Homo sapiens, UniProt P23946 P23946:22-247); assay: inhibition; angiotensin I substrate; 40 kDa PEG; conditions: tags: Calbiochem Human Skin
T1 sequence: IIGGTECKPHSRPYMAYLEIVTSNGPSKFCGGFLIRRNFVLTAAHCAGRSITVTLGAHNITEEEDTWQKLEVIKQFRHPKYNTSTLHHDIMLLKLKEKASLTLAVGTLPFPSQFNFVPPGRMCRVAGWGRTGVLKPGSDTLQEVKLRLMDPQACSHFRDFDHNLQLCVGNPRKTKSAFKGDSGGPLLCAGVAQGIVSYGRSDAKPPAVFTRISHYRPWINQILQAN
Procedure: The total volume of solution for an enzyme reaction in the assay was set to 50 μL, and the reaction was performed in solution C buffer. At first, native (manufactured by Calbiochem) was diluted with solution C to give 5 μL thereof. Here, the native is chymase purified from human skin mast cell. The nucleic acid was serially diluted with solution C at a concentration of 0.0027-2 μM to give 25 μL thereof. The chymase solution (5 μL) and the nucleic acid solution (25 μL) were mixed, and the mixture was incubated at 37° C. for 5 min. On the other hand, […] angiotensin I (manufactured by PEPTIDE […], INC.) was prepared in solution C to give 20 μL thereof, which was incubated at 37° C. for 5 min. […] The whole mixture was centrifuged at 4° C., 14000 rpm for 10 min, and the supernatant (30 μL) was used for the next fluorescence induction reaction.
The above-mentioned supernatant (30 μL) was added to a 96 well plate (black, manufactured by Costar), a solution (15 μL) of 2% o-phthalaldehyde (manufactured by SIGMA) in methanol and 0.3M NaOH solution (170 μL) were added to each well, and the mixture was incubated at room temperature for 10 min. […] The plate was set on a microplate reader SpectraMax190 (manufactured by Molecular device) and the fluorescence intensity was measured at an excitation wavelength of 355 nm and a fluorescence wavelength of 460 nm. […]

[2] = biological target: T1, chymase (native, human skin mast cell); assay: inhibition; angiotensin I substrate, 37 C, 1.8 mM Ca, 0.8 mM Mg, pH 7.6; conditions: tags: Calbiochem Human Skin
Procedure: Whether the nucleic acids shown by SEQ ID NO: 9 and 10 inhibit the enzyme activity of chymase was determined by the following method. Angiotensin I is converted by chymase to angiotensin II, during which a peptide fragment His-Leu is released. Since the peptide His-Leu is fluorescently derivatized by o-phthalaldehyde, its fluorescence intensity can be quantitatively measured.
The total volume of solution for an enzyme reaction in the assay was set to 50 μL, and the reaction was performed in solution C buffer. At first, native (manufactured by Calbiochem) was diluted with solution C to give 5 μL thereof. Here, the native is chymase purified from human skin mast cell. […] The whole mixture was centrifuged at 4° C., 14000 rpm for 10 min, and the supernatant (30 μL) was used for the next fluorescence induction reaction.
The above-mentioned supernatant (30 μL) was added to a 96 well plate (black, manufactured by Costar), a solution (15 μL) of 2% o-phthalaldehyde (manufactured by SIGMA) in methanol and 0.3M NaOH solution (170 μL) were added to each well, and the mixture was incubated at room temperature for 10 min. […] The plate was set on a microplate reader SpectraMax190 (manufactured by Molecular device) and the fluorescence intensity was measured at an excitation wavelength of 355 nm and a fluorescence wavelength of 460 nm.

Row | Binder | IC50 [1] | IC50 [2]
1 | B1 | 0.109 nM | 
2 | B2 |  | 0.22 nM

Source: patent US20210002644, “ANTI-CHYMASE APTAMER AND USE FOR SAME” (RIBOMIC INC., published 2021)
